Results on eight molecules are retold here after paper PMC7612376, “Structural basis of meiotic chromosome synaptic elongation through hierarchical fibrous assembly of SYCE2-TEX12” (Nature structural & molecular biology, 2021).

Sequences and labels used below:
B1: SYCE2 core (amino-acids 57-165) (domain or fragment, human, UniProt Q6PIF2 57-165, looked up)
chain: GLYFSSLDSSIDILQKRAQELIENINKSRQKDHALMTNFRNSLKTKVSDLTEKLEERIYQIYNDHNKIIQEKLQEFTQKMAKISHLETELKQVCHSVETVYKDLCLQPE
notes: SYCE2, human, core, residues 57-165; also called SYCE2 structural core; source: E. coli BL21 (DE3), co-expressed with TEX12, purified (Ni-NTA, amylose, ion exchange, SEC); not shown: MBP, N-terminal, cleaved

Series [1] has as its target SYCE2-TEX12 core ΔCtip 2:2 complex (human) (UniProt Q6PIF2). Description: SEC-MALS; co-purified complexes at >1 mg/ml on Superdex 200 Increase 10/300 GL in 20 mM Tris pH 8.0, 150 mM KCl, 2 mM DTT; in Fig. 1 core at 200 uM and full-length at 100 uM (4 mg/ml). A general note: SEC sorts molecules by how far they enter the pores of the column.
Series [2] concerns the target SYCE2-TEX12 full-length ΔCtip 2:2 complex (human) (UniProt Q6PIF2). Described as above.
Series [3] deals with the molecule itself. Description: crystal structure; SYCE2-TEX12 core ΔCtip 2:2 complex, 33 mg/ml, 35 % MPD, 20°C; space group P21; PDB 6R17.
Series [4] addresses T1, SYCE2 full-length (1-218) (human, UniProt Q6PIF2 1-218).
T1 construct: SYCE2, human, full-length, residues 1-218; source: E. coli BL21 (DE3), co-expressed with TEX12, purified (Ni-NTA, amylose, ion exchange, SEC); not shown: MBP, N-terminal, cleaved
T1 sequence (looked up): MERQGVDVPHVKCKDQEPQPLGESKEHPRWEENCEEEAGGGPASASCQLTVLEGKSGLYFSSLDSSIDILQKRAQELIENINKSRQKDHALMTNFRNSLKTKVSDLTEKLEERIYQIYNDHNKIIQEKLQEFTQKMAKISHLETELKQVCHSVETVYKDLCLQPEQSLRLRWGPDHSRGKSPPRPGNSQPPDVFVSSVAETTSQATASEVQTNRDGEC
Description: SEC-MALS; co-purified complexes at >1 mg/ml on Superdex 200 Increase 10/300 GL in 20 mM Tris pH 8.0, 150 mM KCl, 2 mM DTT; in Fig. 1 core at 200 uM and full-length at 100 uM (4 mg/ml). The note with it: both partners purified.

The target in series [5] is T2, MBP-SYCE2 core (57-165) fusion protein (human, UniProt Q6PIF2 57-165).
T2 construct: SYCE2, human, core, residues 57-165; also called SYCE2-TEX12 core MBP-fusion, SYCE2 chain; source: E. coli BL21 (DE3), co-expressed with TEX12, purified; not shown: MBP, N-terminal, kept
T2 sequence (looked up): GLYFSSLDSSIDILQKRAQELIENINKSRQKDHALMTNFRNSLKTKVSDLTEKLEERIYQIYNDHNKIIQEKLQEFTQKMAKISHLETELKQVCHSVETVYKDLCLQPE
Described as above. The note with it: both partners purified.

Series [6] deals with the molecule itself. The description is as above.
Series [7] deals with T3, SYCE2 core ΔS2C (amino-acids 57-154) (human, UniProt Q6PIF2 57-154).
T3 construct: SYCE2, human, ΔS2C, residues 57-154; source: E. coli BL21 (DE3), co-expressed with TEX12, purified (Ni-NTA, amylose, ion exchange, SEC); not shown: MBP, N-terminal, cleaved
T3 sequence (looked up): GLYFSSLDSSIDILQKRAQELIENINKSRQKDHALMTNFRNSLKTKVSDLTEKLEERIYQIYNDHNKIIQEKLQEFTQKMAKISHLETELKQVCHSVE
Described as above. As to conditions: both partners purified.

Series [8] has as its target B1. The series is described as above. As to conditions: both partners purified.

In series [1], “SYCE2-TEX12 core ΔCtip 2:2 complex (from UniProt Q6PIF2 57-165; Q9BXU0 49-113)” yielded a percent of total mass as 2:2 complex (not self-associated) of 98%, a percent of total mass as 4:4 complex of 2% and a stoichiometry N (2:2 building blocks) of 2.
In series [2], “SYCE2-TEX12 full-length ΔCtip 2:2 complex (from UniProt Q6PIF2 1-218; Q9BXU0 1-113)” gave a percent of total mass as 2:2 complex (not self-associated) of 98%, a percent of total mass as 4:4 complex of 2% and a stoichiometry N (2:2 building blocks) of 2.
B1: the binding result in series [3] is given as “binds”.

B2: TEX12 ΔCtip (amino-acids 1-113) (domain or fragment, human, UniProt Q9BXU0 1-113, looked up)
chain: MMANHLVKPDNRNCKRPRELESPVPDSPQLSSLGKSDSSFSEISGLFYKDEALEKDLNDVSKEINLMLSTYAKLLSERAAVDASYIDEIDELFKEANAIENFLIQKREFLRQR
notes: TEX12, human, ΔCtip, residues 1-113; also called TEX12 ΔCtip truncation; source: E. coli BL21 (DE3), co-expressed with SYCE2, purified (Ni-NTA, amylose, ion exchange, SEC); not shown: His6, N-terminal, cleaved
By stoichiometry N is commonly meant a count of units in the complex or per binding partner. Regarding B2, the “stoichiometry N” value in series [4] was 1 TEX12 per SYCE2 (2:2).

B3: TEX12 core ΔCtip (49-113) of the SYCE2-TEX12 core MBP-fusion proteins (domain or fragment, human, UniProt Q9BXU0 49-113, looked up)
chain: KDEALEKDLNDVSKEINLMLSTYAKLLSERAAVDASYIDEIDELFKEANAIENFLIQKREFLRQR
notes: TEX12, human, core ΔCtip, residues 49-113; also called ΔCtip in the MBP-fusion complex; source: E. coli BL21 (DE3), co-expressed with MBP-SYCE2, purified
In the case of B3, the “stoichiometry N” value in series [5] is 1 TEX12 per SYCE2 (2:2).

B4: SYCE2-TEX12 core ΔS2C/ΔCtip 2:2 complex (complex, human)
chain 1: GLYFSSLDSSIDILQKRAQELIENINKSRQKDHALMTNFRNSLKTKVSDLTEKLEERIYQIYNDHNKIIQEKLQEFTQKMAKISHLETELKQVCHSVE
chain 2: KDEALEKDLNDVSKEINLMLSTYAKLLSERAAVDASYIDEIDELFKEANAIENFLIQKREFLRQR
notes: SYCE2, human, ΔS2C, residues 57-154; TEX12, human, core ΔCtip, residues 49-113; m3 + m10; also called ΔS2C/ΔCtip core complex; source: E. coli BL21 (DE3), co-expressed, purified (Ni-NTA, amylose, ion exchange, SEC); not shown: MBP, N-terminal, cleaved; His6, N-terminal, cleaved; copies: 2 + 2
In the case of B4, in series [6], the “percent of total mass as 2:2 complex (not self-associated)” value was determined as 86%, the “percent of total mass as 4:4 complex” value was 14% and the “stoichiometry N” value is 2 2:2 building blocks.

B5: TEX12 core ΔCtip (amino-acids 49-113) (domain or fragment, human, UniProt Q9BXU0 49-113, looked up)
chain: KDEALEKDLNDVSKEINLMLSTYAKLLSERAAVDASYIDEIDELFKEANAIENFLIQKREFLRQR
notes: TEX12, human, core ΔCtip, residues 49-113; source: E. coli BL21 (DE3), co-expressed with SYCE2, purified (Ni-NTA, amylose, ion exchange, SEC); not shown: His6, N-terminal, cleaved
On to B5, for which the “stoichiometry N” value in series [7] and in series [8] was 1 TEX12 per SYCE2 (2:2) in each case. The binding result in series [3] was “binds”.

B6: TEX12 full-length (1-123) (natural protein, human, UniProt Q9BXU0 1-123, looked up)
chain: MMANHLVKPDNRNCKRPRELESPVPDSPQLSSLGKSDSSFSEISGLFYKDEALEKDLNDVSKEINLMLSTYAKLLSERAAVDASYIDEIDELFKEANAIENFLIQKREFLRQRFTVIANTLHR
notes: TEX12, human, full-length, residues 1-123; source: E. coli BL21 (DE3), co-expressed with SYCE2, purified (Ni-NTA, amylose, ion exchange, SEC); not shown: His6, N-terminal, cleaved
B6: the “stoichiometry N” value in series [4] is 1 TEX12 per SYCE2 (2:2).
